The target in test [1] is T1, purified recombinant human Napi2b antigen consisting of Napi2b-extracellular-loop2 expressed as … (human, UniProt O95436 234-362, limits assumed).
T1 construct: Expressed in Expi-HEK293 cells; also called immobilized human NaPi2B; not shown: Fc part; 6-His tag
T1 sequence: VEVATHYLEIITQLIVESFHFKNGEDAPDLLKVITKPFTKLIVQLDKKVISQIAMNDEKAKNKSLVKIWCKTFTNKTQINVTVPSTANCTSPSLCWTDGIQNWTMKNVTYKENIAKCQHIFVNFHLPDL
As to the kind of experiment: ELISA, coated Napi2b-extracellular-loop2-Fc-6-His, apparent KD from one-site fit.

For test [2], the target named is T2, human NaPi2b on NaPi2b-positive cell lines OVCAR-3 and HCC-78 (human, UniProt O95436 1-690).
T2 construct: Endogenous protein
T2 sequence: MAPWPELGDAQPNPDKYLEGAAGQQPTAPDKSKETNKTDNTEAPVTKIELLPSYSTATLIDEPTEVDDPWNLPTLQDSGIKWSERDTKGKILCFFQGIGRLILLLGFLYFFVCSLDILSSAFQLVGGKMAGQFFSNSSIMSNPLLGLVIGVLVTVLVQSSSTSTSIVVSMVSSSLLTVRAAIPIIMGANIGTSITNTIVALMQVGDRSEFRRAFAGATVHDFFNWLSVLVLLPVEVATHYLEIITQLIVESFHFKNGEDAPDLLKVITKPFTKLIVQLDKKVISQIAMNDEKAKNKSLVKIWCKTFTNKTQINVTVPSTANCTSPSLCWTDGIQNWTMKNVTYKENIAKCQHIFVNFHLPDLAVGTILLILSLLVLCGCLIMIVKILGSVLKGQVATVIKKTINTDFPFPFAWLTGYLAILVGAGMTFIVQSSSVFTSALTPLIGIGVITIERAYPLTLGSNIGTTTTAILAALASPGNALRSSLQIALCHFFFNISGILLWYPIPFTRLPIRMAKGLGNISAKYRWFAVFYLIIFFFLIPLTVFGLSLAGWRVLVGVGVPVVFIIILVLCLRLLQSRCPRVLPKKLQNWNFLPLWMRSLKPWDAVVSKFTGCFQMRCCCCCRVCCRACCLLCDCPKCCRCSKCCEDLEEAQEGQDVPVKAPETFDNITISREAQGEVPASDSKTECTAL
As to the kind of experiment: flow cytometry on OVCAR-3 cells; table column Binding KD (nmol/L), FACS (OVCAR-3). In general terms: In flow cytometry, cells or beads pass a laser one at a time.

The target of test [3] is T1, purified recombinant human Napi2b …. As to the kind of experiment: ELISA on the isolated immobilized protein; table column Binding KD (nmol/L), ELISA.
Test [4] shares this target. As to the kind of experiment: ELISA on immobilized recombinant human Napi2b extracellular loop 2-Fc-6-His, HRP anti-human kappa detection.
Test [5] has as its target T3, HEK293 rat-NaPi2B-mCherry (Rattus norvegicus, UniProt Q9JJ09).
T3 construct: full-length mCherry fusion stably expressed on HEK293 cells; also called rat full-length NaPi2b-mCherry on HEK293 cells
T3 sequence (target on cells, looked up): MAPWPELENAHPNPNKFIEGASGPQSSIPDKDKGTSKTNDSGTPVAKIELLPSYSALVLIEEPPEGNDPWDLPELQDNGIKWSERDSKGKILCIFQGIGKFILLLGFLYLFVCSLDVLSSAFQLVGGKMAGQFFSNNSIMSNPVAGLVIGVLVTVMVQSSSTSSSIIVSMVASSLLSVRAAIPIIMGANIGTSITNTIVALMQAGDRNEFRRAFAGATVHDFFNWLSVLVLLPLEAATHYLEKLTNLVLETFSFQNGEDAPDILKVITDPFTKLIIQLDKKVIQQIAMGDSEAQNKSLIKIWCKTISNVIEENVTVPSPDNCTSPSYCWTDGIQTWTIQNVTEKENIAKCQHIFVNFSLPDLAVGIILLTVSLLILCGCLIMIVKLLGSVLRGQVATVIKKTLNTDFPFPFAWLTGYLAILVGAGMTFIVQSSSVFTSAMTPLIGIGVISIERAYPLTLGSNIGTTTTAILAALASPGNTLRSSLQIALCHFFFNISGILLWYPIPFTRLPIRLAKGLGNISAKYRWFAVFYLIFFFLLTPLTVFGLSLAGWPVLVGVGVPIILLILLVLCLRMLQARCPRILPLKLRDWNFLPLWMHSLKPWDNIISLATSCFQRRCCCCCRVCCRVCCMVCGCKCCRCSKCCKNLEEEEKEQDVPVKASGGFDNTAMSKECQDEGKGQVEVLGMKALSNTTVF
As to the kind of experiment: flow cytometry on HEK293 cells stably expressing rat full-length NaPi2b-mCherry, Alexa-dye anti-human IgG H+L secondary antibody, MFI ratio, one-site specific binding fit; the Kd table prints no unit, the concentration axis is in nM.

The target in test [6] is T4, human Napi2b-mCherry on HEK293 cells (human, UniProt O95436 1-690).
T4 construct: also called Napi2b (SLC34A2); HEK293 cells overexpressing Napi2b
T4 sequence: T2 sequence
Kind of test: flow cytometry on HEK293 cells stably expressing human full-length NaPi2b-mCherry, Alexa-dye anti-human IgG H+L secondary antibody, MFI ratio, one-site specific binding fit; the Kd table prints no unit, the concentration axis is in nM.

The target of test [7] is T5, HEK293 cyno-NaPi2B-mCherry (Macaca fascicularis, UniProt A0A2K5UHY1).
T5 construct: full-length mCherry fusion stably expressed on HEK293 cells; also called cynomolgus full-length NaPi2b-mCherry on HEK293 cells
T5 sequence (target on cells): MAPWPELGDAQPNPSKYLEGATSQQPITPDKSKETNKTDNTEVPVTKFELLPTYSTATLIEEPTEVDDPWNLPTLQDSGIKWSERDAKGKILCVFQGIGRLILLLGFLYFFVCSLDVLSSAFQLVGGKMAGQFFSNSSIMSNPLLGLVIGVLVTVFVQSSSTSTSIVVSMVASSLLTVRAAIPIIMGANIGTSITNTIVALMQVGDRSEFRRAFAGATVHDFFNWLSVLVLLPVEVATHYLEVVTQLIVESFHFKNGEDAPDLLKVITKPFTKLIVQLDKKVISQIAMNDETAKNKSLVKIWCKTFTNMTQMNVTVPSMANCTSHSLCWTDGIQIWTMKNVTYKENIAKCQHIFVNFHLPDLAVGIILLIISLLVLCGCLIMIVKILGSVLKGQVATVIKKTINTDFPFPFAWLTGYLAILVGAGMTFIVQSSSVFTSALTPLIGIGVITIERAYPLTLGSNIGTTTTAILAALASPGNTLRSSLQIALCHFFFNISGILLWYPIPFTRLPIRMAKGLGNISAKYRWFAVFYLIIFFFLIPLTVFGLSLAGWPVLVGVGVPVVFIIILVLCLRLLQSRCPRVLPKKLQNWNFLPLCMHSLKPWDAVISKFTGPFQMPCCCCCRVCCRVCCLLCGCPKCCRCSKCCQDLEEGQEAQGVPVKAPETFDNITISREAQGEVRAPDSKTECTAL
As to the kind of experiment: flow cytometry on HEK293 cells stably expressing cynomolgus full-length NaPi2b-mCherry, Alexa-dye anti-human IgG H+L secondary antibody, MFI ratio, one-site specific binding fit; the Kd table prints no unit, the concentration axis is in nM.

The target in test [8] is T4, human Napi2b-mCherry on HEK293 cells. As to the kind of experiment: flow cytometry on HEK293 cells stably expressing human full-length NaPi2b-mCherry, Alexa-dye anti-human IgG H+L secondary antibody, MFI ratio, one-site specific binding fit; the Kd table prints no unit, the concentration axis is in nM; second experiment on human cells, run beside the rat cells of FIG. 3D.

Test [9] has as its target T6, recombinant human FcRn (FcγRn-SmBiT, Lumit assay) (human, UniProt P55899 24-297; P61769 21-119).
T6 construct: Kit reagent (Promega); not shown: SmBiT label of the kit
Kind of test: Lumit FcRn Binding Immunoassay (Promega), competition with Tracer-LgBiT for FcRn-SmBiT, n=1.

Test [10] deals with T7, recombinant human FcγRI (FcγR-SmBiT, Lumit assay) (human, UniProt P12314 16-292).
T7 construct: Kit reagent (Promega); also called FcγRI (CD64); not shown: SmBiT label of the kit
As to the kind of experiment: Lumit FcγRI Binding Immunoassay (Promega), competition with Tracer-LgBiT for FcγRI-SmBiT, n=1.

For test [11], the target named is T8, recombinant hexameric C1q complement protein (human) (human, UniProt P02745 23-245; P02746 28-253; P02747 29-245).
T8 construct: also called complement factor C1q
As to the kind of experiment: HTRF Human C1q Binding Kit (Cisbio), HTRF ratio at 70 nM antibody with the diluent-only background subtracted. A general note: In TR-FRET formats the signal depends on donor and acceptor labels being close together.

In another test the target is T9, FcγRIIa (CD32) (H131) (Fused to the SmBiT luciferase fragment (Promega Lumit reagent), not carried in the letters).
T9 construct: m20 joins both polymorphic variants; also called H131 variant of m20; not shown: SmBiT tag (and any linker or purification tag) of Promega's FcγR-SmBiT fusion
T9 chain: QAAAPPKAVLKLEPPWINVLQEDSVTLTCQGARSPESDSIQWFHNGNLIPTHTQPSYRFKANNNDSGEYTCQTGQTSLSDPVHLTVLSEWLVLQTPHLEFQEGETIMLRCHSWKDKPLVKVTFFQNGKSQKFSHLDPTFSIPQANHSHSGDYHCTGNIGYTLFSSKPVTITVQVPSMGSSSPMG
As to the kind of experiment: Lumit FcγRIIa (H131) Binding Immunoassay (Promega), left panel FcγRIIa (CD32) (H131), competition with Tracer-LgBiT, n=1.

A further test deals with T10, FcγRIIIa (CD16) (V158) (Homo sapiens, UniProt P08637).
T10 construct: m21 joins both polymorphic variants; also called V158 variant of m21
As to the kind of experiment: Lumit FcγRIIIa (V158) Binding Immunoassay (Promega), left panel FcγRIIIa (CD16) (V158), competition with Tracer-LgBiT, n=1.

B1: parental mAb (parental anti-NaPi2b antibody) (antibody, human IgG1, kappa, L234A L235A, V domains shown)
VH: EVQLVQSGAEVVKPGASVKMSCKASGYTFTGYNIHWVKQAPGQGLEWIGAIYPGNGDTSYKQKFRGRATLTADTSTSTVYMELSSLRSEDSAVYYCARGETARATFAYWGQGTLVTVSS
VL: DIQMTQSPSSLSASVGDRVTITCSASQDIGNFLNWYQQKPGKTVKVLIYYTSSLYSGVPSRFSGSGSGTDYTLTISSLQPEDFATYYCQQYSKLPLTFGQGTKLELKR
notes: also called parental antibody
With B1, the Kd in [1] turned out to be 0.0221 µg/mL; in [2], 10.8 nM; in test [3], 0.147 nM; in test [5] it was 6.88 nM; in [6] it was 5.43 nM; in test [7] it was 4.48 nM. For the same molecule, the Kd in [8] worked out at 2.85 nM. For the same molecule, in test [4], the concentration for a half-maximal effect (EC50 (read off the curve)) (as a rule, the concentration giving half of the maximal effect) was around 0.02 µg/mL.

B2: Fc-wildtype AV25 (AV25 HC-wt) (antibody)
heavy: not shown
light: DIQMTQSPSSLSASVGDRVTITCSASQDIGNFLNWYQQKPGKTVKVLIYYASSLYSGVPSRFSGSGSGTDYTLTISSLQPEDFATYYCQQYSKLPLTFGQGTKLELKRTVAAPSVFIFPPSDEQLKSGTASVVCLLNNFYPREAKVQWKVDNALQSGNSQESVTEQDSKDSTYSLSSTLTLSKADYEKHKVYACEVTHQGLSSPVTKSFNRGEC
notes: IgG1 with wild-type Fc (L234, L235); also called AV25-wt
With B2, the “IC50 (read off the curve)” value was around 3 µg/mL in test [9], around 0.02 µg/mL in test [10], around 1 µg/mL in the test with FcγRIIa (CD32) (H131) and around 2 µg/mL in the test with FcγRIIIa (CD16) (V158). Also, the binding result in test [11] is reported as “binds”.

The values above are taken from patent publication US20240182596A1 (TUBULIS, published 2024).
